Data taken from article PMC8531759.
Blank lines part the entries; values can stand above or below the substance they belong to.

Experiments:
Assay in all cases: SEC; Sephacryl S-400R in buffer C (20 mM Na-phosphate pH 7.4, 100 mM NaCl, 0.05% dodecyl beta-maltoside); absorbance at 280 nm; apparent molecular weight by comparison to globular protein standards; self-association, hexamer
[1] = molecular target: AbSGR-h D62N mutant (Anaerolineae bacterium SM23_63)
[2] = molecular target: Anaerolineae bacterium SM23_63 SGR homolog (AbSGR-h), wild-type (Anaerolineae bacterium SM23_63)
[3] = molecular target: AbSGR-h D34N mutant (Anaerolineae bacterium SM23_63)
[4] = molecular target: AbSGR-h T36A mutant (Anaerolineae bacterium SM23_63)
[5] = molecular target: AbSGR-h H32A mutant (Anaerolineae bacterium SM23_63)

stoichiometry N [1]: 6
Substance: AbSGR-h D62N mutant (enzyme)

stoichiometry N [2]: 6
Substance: Anaerolineae bacterium SM23_63 SGR homolog (AbSGR-h), wild-type (enzyme)

stoichiometry N [3]: 6
Substance: AbSGR-h D34N mutant (enzyme)

stoichiometry N [4]: 6
Substance: AbSGR-h T36A mutant (enzyme)

stoichiometry N [5]: 6
Substance: AbSGR-h H32A mutant (enzyme)
